From paper PMC11417181

Assays:
[1] = target: C3b C3b (Homo sapiens) (UniProt P01024); details: cited from earlier work
[2] = target: SCR-17/18H deglycosylated with PNGase F (human); assay: AUC; sedimentation velocity of the SCR fragments, 20 °C, 50,000 rpm, Hepes buffer (10 mM Hepes, 137 mM NaCl, pH 7.4), c(s) analysis in SEDFIT, proportions of monomer and dimer from peak integration; monomer to dimer

Chain of C3b C3b (Homo sapiens) (P01024 566-670): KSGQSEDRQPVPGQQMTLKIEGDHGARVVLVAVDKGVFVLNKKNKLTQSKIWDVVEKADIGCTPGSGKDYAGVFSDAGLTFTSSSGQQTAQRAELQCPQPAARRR
Chain of Complement factor H (P08603 19-1231): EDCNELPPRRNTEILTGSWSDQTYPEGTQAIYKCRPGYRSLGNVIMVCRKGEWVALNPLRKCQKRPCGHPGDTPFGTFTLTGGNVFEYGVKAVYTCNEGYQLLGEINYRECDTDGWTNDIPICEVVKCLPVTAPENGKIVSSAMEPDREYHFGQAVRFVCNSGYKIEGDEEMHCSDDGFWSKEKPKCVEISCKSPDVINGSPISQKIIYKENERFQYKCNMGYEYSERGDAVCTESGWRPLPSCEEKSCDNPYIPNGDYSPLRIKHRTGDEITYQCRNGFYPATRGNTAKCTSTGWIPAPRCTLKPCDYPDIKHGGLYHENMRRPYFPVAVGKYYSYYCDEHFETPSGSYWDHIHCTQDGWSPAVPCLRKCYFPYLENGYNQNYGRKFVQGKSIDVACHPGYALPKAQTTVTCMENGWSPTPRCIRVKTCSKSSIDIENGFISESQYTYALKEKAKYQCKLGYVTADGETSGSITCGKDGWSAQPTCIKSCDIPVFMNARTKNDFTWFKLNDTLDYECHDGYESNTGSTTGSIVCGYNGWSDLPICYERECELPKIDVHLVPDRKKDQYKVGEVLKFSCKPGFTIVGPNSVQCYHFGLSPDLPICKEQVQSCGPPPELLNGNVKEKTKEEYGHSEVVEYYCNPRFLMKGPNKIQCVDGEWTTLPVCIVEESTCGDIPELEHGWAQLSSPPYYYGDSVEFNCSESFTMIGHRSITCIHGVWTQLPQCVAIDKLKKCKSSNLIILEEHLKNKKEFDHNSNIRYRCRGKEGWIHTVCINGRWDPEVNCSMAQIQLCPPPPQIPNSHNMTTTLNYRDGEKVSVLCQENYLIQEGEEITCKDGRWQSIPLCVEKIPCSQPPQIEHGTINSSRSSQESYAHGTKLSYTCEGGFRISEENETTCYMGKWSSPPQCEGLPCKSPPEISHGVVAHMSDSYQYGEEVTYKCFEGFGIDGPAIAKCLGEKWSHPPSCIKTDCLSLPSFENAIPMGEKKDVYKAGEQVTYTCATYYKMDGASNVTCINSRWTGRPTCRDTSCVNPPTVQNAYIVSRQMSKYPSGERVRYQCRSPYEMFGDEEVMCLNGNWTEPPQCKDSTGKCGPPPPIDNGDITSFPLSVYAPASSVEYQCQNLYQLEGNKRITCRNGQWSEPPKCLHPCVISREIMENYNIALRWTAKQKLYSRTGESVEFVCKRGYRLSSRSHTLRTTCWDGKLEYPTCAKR

proportion of dimer [2] | stoichiometry N [2] | Substance | Kd [1]
– | – | Complement factor H (from UniProt P08603) | 1060 nM
16% | 2 | SCR-17/18H deglycosylated with PNGase F (domain or fragment) | –
